One data set concerns IgG1-DS5 (human IgG1/kappa framework, scFv phage library derived). As to the kind of experiment: SPR steady state. To be noted: 2'-O-methyl; ELISA: streptavidin or anti-FAM plates, PBS/0.05% Tween 20 washes, BSA or Blotto block; EMSA: PBS, 1 h, room temperature, 20 uM oligo, 25 ng/uL IgG, 5% …. A general note: A gel shift assay detects complexes by their altered migration in electrophoresis.
Regarding “UUUUUCCUGUGUCCUGAAGAAAGCA / UUUCUUCAG [T2 duplex without biotin]”, the Kd stood at 440 nM.

Still in this data set, the particulars now being: all 2'-O-methyl, 5' BCN on strand 2, 3' azide on strand 3, reacting to triazole, ELISA: streptavidin or anti-FAM plates, PBS/0.05% Tween 20 washes, BSA or Blotto block, EMSA: PBS, 1 h, room temperature, 20 uM oligo, 25 ng/uL IgG.
The sequence “UUUUUCCUGUGUCCUGAAGAAAGCAAAGACAUCUGGACAU / UUUCUUCAGGACACAG / GUCCAGAUGUCUUUGC [Temp1:BCN-haplomer-1:azide-haplomer-2 complex]” registered an equilibrium dissociation constant (Kd) of 330 nM.

For a further data set the test system is unchanged. As to the kind of experiment: ELISA. To be noted: 2'-O-methyl; 3' azide on strand 2; ELISA: streptavidin or anti-FAM plates, PBS/0.05% Tween 20 washes, BSA or Blotto block; EMSA: PBS, 1 h, room temperature, 20 uM oligo, 25 ng/uL IgG, 5% …. On the technique in general: In an ELISA, binding on a coated surface is turned into a signal by an enzyme label.
With “UUUUUCCUGUGUCCUGAAGAAAGCAAAGACAUCUGGACAU / GUCCAGAUGUCUUUGC [D2 template:azide-haplomer-2]”, the binding signal (% of full complex ELISA slope) was 0.

Still in this data set, the particulars now being: 2'-O-methyl; ELISA: streptavidin or anti-FAM plates, PBS/0.05% Tween 20 washes, BSA or Blotto block; EMSA: PBS, 1 h, room temperature, 20 uM oligo, 25 ng/uL IgG, 5% ….
“UUUCUGAAGAAAUUUCCUGUGUC / UUUCUUCAG [T10 TempFlp:9-co]” yielded a binding signal (% of T2 ELISA slope) of 0. “UUUUUCCUGUGUCACAAUAGAG / CUCUAUUGU [T9 TempTr8:complementary 9-mer]” returned a binding signal (% of T2 ELISA slope) of 0. Take “UUUUUCCUGUGUCCUGAAGAAA / UUUCUUCAG [T3 TempTr2:9-co]”: the binding signal (% of full complex ELISA slope) came out at 100. “UUUUUCCUGUGUCCUGAAGAAAGCA / UUUCUUCAG [T2 TempTr1:9-co]”: the binding signal (% of full complex ELISA slope) came to 100. Still for that read-out and setting: then “UUUUUCCUGUGUCCUGAAGAAAGCA / UUUCUUCAGGACACAG [T1 TempTr1:oligo-1]”, with 100. On the same count and under the same terms, in the case of “UUUUUCCUGUGUCCUGAAGAAAGCAAAGACAUCUGGACAU / AUGUCUUUGCUUUCUUCAGG [D6 template:contig. complement-1]” it was 0.8. The sequence “UUUUUCCUGUGUCCUGAAGAAAGCAAAGACAUCUGGACAU / GUCCAGAUGUCUUUGC [D4 template:oligo-2]” gave a binding signal (% of full complex ELISA slope) of 0.

“UUUUUCCUGUGUCCUGAAGAAAGCAAAGACAUCUGGACAU / UUUCUUCAGGACACAG / GUCCAGAUGUCUUUGC [D5 template:oligo-1:oligo-2]” returned a binding signal (% of full complex ELISA slope) of 45. Still for that read-out and setting: in the case of “UUUUUCCUGUGUCCUGAAGAAAGCAAAGACAUCUGGACAU / UUUCUUCAGGACACAG [D3 template:oligo-1]” it was 76.1. In turn, “UUUUUCGUGUGUGCUGAAGAAA / UUUCUUCAG [T8 TempTr7:9-co]” showed a binding signal (% of T2 ELISA slope) of 0.

In turn, “UUUUUCUCUCUGGCUGAAGAAA / UUUCUUCAG [T5 TempTr4:9-co]” registered a binding signal (% of T2 ELISA slope) of 0. “UUUUUCUGAAGAA / UUUCUUCAG [T4 TempTr3:9-co]” had a binding signal (% of T2 ELISA slope) of 0.

As usually defined, the Kd is the concentration at which binding is half-saturated.

The values are drawn from PMC12833424.
